# Test results as given in patent publication US20260125472A1 (HEFEI TG IMMUNOPHARMA, published 2026).
# Columns and labels:
# [1] = target: T1, PDL1 on A-375 melanoma cells, HCT-15 colorectal cancer cells and A549 lung cancer cells (UniProt Q9NZQ7 19-290, limits assumed); assay: flow cytometry, A549 cells, MFI [panel B]
# T1 construct: whole, on cells
# Summary of the method: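 Cells were blocked with goat serum at 4° C for 30 min, then incubated with serially diluted bispecific antibodies or hIgG1LALA control at 4° C for 30 min. Bound antibody was detected with Alexa-647 anti-human IgG (4° C, 30 min, dark) and read by flow cytometry.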
# PDL1 protein = target: T2, PDL1 protein (UniProt Q9NZQ7 19-238); assay: ELISA, coated PDL1 protein, OD450 [panels A, B]
# T2 construct: Bought recombinant protein
# T2 sequence (Q9NZQ7 19-238 limits assumed): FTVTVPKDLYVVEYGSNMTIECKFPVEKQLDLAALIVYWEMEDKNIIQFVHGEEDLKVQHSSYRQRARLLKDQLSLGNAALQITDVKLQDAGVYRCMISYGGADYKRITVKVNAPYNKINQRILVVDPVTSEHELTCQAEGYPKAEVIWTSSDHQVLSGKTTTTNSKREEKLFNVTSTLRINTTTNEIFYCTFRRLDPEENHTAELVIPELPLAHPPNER
# Method: (3) PDL1 protein (purchased from Acro) was diluted to 2 μg/ml with PBS buffer, added to a 96-well plate at a volume of 100 μL/well, and placed at 4° C. overnight. The PBS buffer in the 96-well plate was aspirated, and the plate was washed 6 times with PBST (pH 7.2 PBS containing 0.10% Tween 20) buffer. Then, PBS/10% BSA was added at 200 μL/well and incubated at 37° C. for 2 h for blocking. The blocking solution was removed, and the plate was washed six times with PBST. Then, the to-be-tested bispecific antibodies serially diluted with PBST/0.05% BSA, Cross3×PDL1, Cross303×PDL1, Cross307×PDL1, Cross308×PDL1, Cross309×PDL1, Cross310×PDL1, Cross311×PDL1, Cross312×PDL1, Cross313×PDL1, Cross314×PDL1, Cross316×PDL1, Cross317×PDL1, Cross318×PDL1, Cross323×PDL1, Cross325×PDL1, Cross326×PDL1, and control IgG1LALA (purchased from Bio-Tech) were added at 100 μL/well, and incubated at 37° C. for 1 h. The reaction system was removed, and the plate was washed 6 times with PBST. Then, the cells were incubated at 37° C. for 1 h with HRP (horseradish peroxidase)-labeled anti-human secondary antibody (Fab specific) (purchased from Sigma) serially diluted with PBST/0.05% BSA at 100 μL/well. After the plate was washed six times with PBST, TMB (tetramethylbenzidine) was added at 80 μL/well and incubated at room temperature for 3 min. […] The absorbance was read at 450 nm using a microplate reader.
# T1 sequence (Q9NZQ7 19-290 limits assumed): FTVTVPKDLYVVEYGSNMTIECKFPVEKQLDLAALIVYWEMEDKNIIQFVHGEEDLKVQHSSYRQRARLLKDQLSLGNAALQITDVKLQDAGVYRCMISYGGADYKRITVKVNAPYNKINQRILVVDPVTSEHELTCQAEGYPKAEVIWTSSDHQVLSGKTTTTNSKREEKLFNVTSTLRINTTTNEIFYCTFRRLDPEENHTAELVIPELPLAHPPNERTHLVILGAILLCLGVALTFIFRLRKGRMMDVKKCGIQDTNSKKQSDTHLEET
binder,measurement,setting,value
"Cross3×PDL1 (bispecific antibody, human IgG1, kappa, L234A L235A, also called parent Cross3×PDL1 bispecific antibody) scFv: not shown heavy: QVQLVQSGAEVKKPGASVKVSCKASGYSFTGYYMHWVRQAPGQGLEWIGRINPYNGATTYSQNFKDRATMTVDTSISTAYMELSRLRSDDTAVYYCVPTGMGYFLMDYWGQGTLVTVSSASTKGPSVFPLAPSSKSTSGGTAALGCLVKDYFPEPVTVSWNSGALTSGVHTFPAVLQSSGLYSLSSVVTVPSSSLGTQTYICNVNHKPSNTKVDKKVEPKSCDKTHTCPPCPAPEAAGGPSVFLFPPKPKDTLMISRTPEVTCVVVDVSHEDPEVKFNWYVDGVEVHNAKTKPREEQYNSTYRVVSVLTVLHQDWLNGKEYKCKVSNKALPAPIEKTISKAKGQPREPQVCTLPPSREEMTKNQVSLSCAVKGFYPSDIAVEWESNGQPENNYKTTPPVLDSDGSFFLVSKLTVDKSRWQQGNVFSCSVMHEALHNHYTQKSLSLSPGK light: DIQLTQSPSFLSASVGDRVTITCKASQDVGSAVVWYQQKPGKAPKLLIYWASTRHTGVPSRFSGSGSGTEFTLTISSLQPEDFATYFCQQFTSYPTFGQGTKLEIKRTVAAPSVFIFPPSDEQLKSGTASVVCLLNNFYPREAKVQWKVDNALQSGNSQESVTEQDSKDSTYSLSSTLTLSKADYEKHKVYACEVTHQGLSSPVTKSFNRGEC",EC50 (read off the curve),[1],~1 µg/mL
same,EC50 (read off the curve),PDL1 protein,~0.2 µg/mL
